Experiments:
[1] = target: human Toll-like receptor 2 (hTLR2) on HEK-Blue hTLR2 cells (human (printed as hTLR2), UniProt O60603 21-784); experiment: cell-based or functional assay
[2] = test system: TNFα; experiment: Circulating TNFα levels in mice fed a high-fat diet; assay type: in vivo, mice (C57BL/6JN); details: 12 weeks; versus DAG; including SEQ ID NO: 2 at low doses
Protocol: (§1) For all the in vivo testing, male mice of the C57BL/6JN strain between 8 to 10 weeks of age were used, housed in groups of 3 to 5 mice per cage with food and water ad libitum in ventilated racks, and whose microbiota were unified for 4 weeks.
(§2) The mice received either 200 μL of a phosphate buffer solution (PBS) at pH 7.5 (as a vehicle), or 200 μL of the PBS solution, with each of the intragastric treatments daily for 12 weeks. They were fed either a Normal Diet (DN, Harlan, Teklad 2018SX) with 18% of the calories coming from fat, or a High-Fat Diet (DAG, Research Diets, D12491), with 60% of the calories coming from fat. […]
(§3) To determine the effect of the peptides SEQ ID NO: 2 and SEQ ID NO: 3 in attenuating the inflammatory process in adipose tissue, the cellular infiltrate of the adipose tissue of the mice was quantified after they had been fed DAG.

[3] = Body weight of mice on high-fat diet (DAG) with intragastric peptide for 12 weeks; assay type: in vivo, mice (C57BL/6JN)
Protocol: as §1
(§4) The mice received either 200 μL of a phosphate buffer solution (PBS) at pH 7.5 (as a vehicle), or 200 μL of the PBS solution, with each of the intragastric treatments daily for 12 weeks. They were fed either a Normal Diet (DN, Harlan, Teklad 2018SX) with 18% of the calories coming from fat, or a High-Fat Diet (DAG, Research Diets, D12491), with 60% of the calories coming from fat.
(§5) All the mice were randomly divided into five experimental groups in order to study the effect of SEQ ID NO: 3 and SEQ ID NO: 2 correctly: • Group 1—Mice with DN that received 200 μl of PBS intragastrically. • Group 2—Mice with DAG that received 200 μl of PBS intragastrically. • Group 3—Mice with DAG that received 200 μl of PBS with SEQ ID NO: 3 intragastrically at a dose of: 2.5 μg/mouse. • Group 4—Mice with DAG that received 200 μl of PBS with SEQ ID NO: 2 intragastrically at a dose of 0.6 μg/mouse (high dose). • Group 5—Mice with DAG that received 200 μl of PBS with SEQ ID NO: 2 intragastrically at a dose of 0.2 μg/mouse (low dose).
The animal weights and feed intakes were recorded weekly.
To determine the metabolic status of the animals before starting the experiment, weight, basal glucose levels, glucose tolerance, and insulin resistance were recorded.

[4] = test system: adipose tissue; experiment: Cellular infiltrate / inflammatory process in adipose tissue of mice fed a high-fat diet; assay type: in vivo, mice (C57BL/6JN)
Protocol: as §1, §4, §5, §3

[5] = test system: insulin; experiment: Insulin levels (secretion in response to glucose) in mice fed a high-fat diet; assay type: in vivo, mice (C57BL/6JN); details: 12 weeks; versus DAG group
Protocol: as §1, §4, §5
This means that the peptide SEQ ID NO: 3 improves insulin sensitivity, preventing insulin resistance from developing.

[6] = test system: leptin; experiment: Leptin levels in mice fed a high-fat diet; assay type: in vivo, mice (C57BL/6JN); details: 12 weeks; compared to mice fed only DAG
Protocol: as §1, §4
as §5, with “(low dose). […]” for “(low dose).”

[7] = test system: mice fed a high-fat diet; experiment: Glucose tolerance test (GTT) in mice fed a high-fat diet; assay type: in vivo, mice (C57BL/6JN); details: 12 weeks; intragastric daily; SEQ ID NO: 3 2.5 μg/mouse, SEQ ID NO: 2 0.6 or 0.2 μg/mouse
Protocol: as §1, §2
The mice were subjected to fasting for 6 hours, and the baseline glucose values in the blood were determined using glucose test strips and a glucometer (Roche's ACCU-CHECK ACTIVE).
Next, the mice received an intraperitoneal injection of 1.8 mg of glucose per gram of body weight, and the blood glucose values were recorded at 15, 30, 60, and 120 minutes after administration.
FIGS. 19A and 19B show the area under the curve (AUC) of the glucose tolerance test of the mice, measured at week 0 and 12.

[8] = target: T1, hTLR2 (Homo sapiens, UniProt O60603); experiment: hTLR2 stimulation in HEK-Blue hTLR2 cells (NF-κβ/SEAP reporter, QUANTI-Blue); assay type: cell-based
T1 construct: expressed in transfected cells; host or cells: HEK-Blue hTLR2 cells
Protocol: The analysis of the biological activity of the protein of SEQ ID NO. 1 was performed via an in vitro Toll-like receptors (TLRs) recognition assay. The HEK-Blue hTLR2 cell line expressing the hTLR2 receptor was used, whose stimulation activates the NF-Kβ factor, which in turn induces the production of the reporter protein, secreted embryonic alkaline phosphatase (SEAP). The SEAP levels are quantified by a colorimetric method with the reagent QUANTI-Blue and correspond to hTLR2 stimulation levels. The HEK-Blue hTLR2 cell line was thawed and propagated to make a master cell bank. From this bank, a vial was thawed to check the correct growth of the cell line and the absence of mycoplasma contamination. The cells of the thawed vial were propagated to make a working cell bank and continue the subcultures to mount the activity assay of SEQ ID NO. 1. This consisted of a series of tests in which the cellular response was evaluated with different molecules to determine the most suitable conditions for the assay.
The determined EC50 for SEQ ID NO. 1 was 1147±211 ng/ml (35.1±6.4 nM).
The in vitro biological activity of SEQ ID NO:2, SEQ ID NO:3, SEQ ID NO:4, SEQ ID NO: 8, SEQ ID NO:9, SEQ ID NO: 10, SEQ ID NO:11, SEQ ID NO: 12, SEQ ID NO: 13, SEQ ID NO: 14, SEQ ID NO: 15, and SEQ ID NO:16 was tested via the stimulation of hTLR2 in the cultures of HEK-Blue hTLR2 cells in 96-well plates for 24 h. After collecting the supernatant, the plate was incubated with QUANTI-Blue at 37° C. for 1 h, and absorbance was measured at 620 nm.
To determine the EC50, the absorbance was plotted against the logarithm of protein concentration, and the data was adjusted to a dose-response sigmoidal ligand binding model with 4 parameters. The cell culture medium was used as a negative control, and PAM (synthetic triacylated lipopeptide (Pam3CSK4)) was used as a positive control.

[9] = test system: adiponectin; experiment: Adiponectin levels in mice fed a high-fat diet; assay type: in vivo, mice (C57BL/6JN); details: 12 weeks; fall induced by DAG
Protocol: as §1, §4
as §5, with “(low dose). […]” for “(low dose).”

T1 sequence (O60603 21-784): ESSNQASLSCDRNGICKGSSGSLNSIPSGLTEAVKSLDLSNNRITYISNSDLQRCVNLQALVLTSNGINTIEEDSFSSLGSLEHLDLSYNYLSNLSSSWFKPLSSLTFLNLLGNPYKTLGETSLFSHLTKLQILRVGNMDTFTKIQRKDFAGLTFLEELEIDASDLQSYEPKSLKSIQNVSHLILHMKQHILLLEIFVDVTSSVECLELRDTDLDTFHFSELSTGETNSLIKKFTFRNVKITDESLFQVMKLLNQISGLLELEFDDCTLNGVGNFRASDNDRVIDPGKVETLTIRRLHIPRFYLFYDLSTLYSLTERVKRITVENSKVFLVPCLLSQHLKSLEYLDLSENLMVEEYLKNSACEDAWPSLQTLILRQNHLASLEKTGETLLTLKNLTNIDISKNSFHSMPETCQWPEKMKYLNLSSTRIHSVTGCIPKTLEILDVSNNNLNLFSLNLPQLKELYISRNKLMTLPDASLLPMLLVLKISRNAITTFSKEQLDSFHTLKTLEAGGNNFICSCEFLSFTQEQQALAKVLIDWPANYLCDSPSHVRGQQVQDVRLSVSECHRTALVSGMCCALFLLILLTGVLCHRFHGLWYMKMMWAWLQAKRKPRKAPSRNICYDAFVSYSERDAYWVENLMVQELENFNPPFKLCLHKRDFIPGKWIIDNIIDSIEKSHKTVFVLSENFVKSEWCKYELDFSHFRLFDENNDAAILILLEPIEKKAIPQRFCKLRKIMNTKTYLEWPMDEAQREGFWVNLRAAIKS
Sequence of human Toll-like receptor 2 (hTLR2) on HEK-Blue hTLR2 cells (O60603 21-784): as above

- EC50 [1]: 25.9 nM
- concentration from which hTLR2 is (significantly) stimulated ([8]; HEK-Blue hTLR2 cells, 24 h): 8 nM
- relative response compared to PAM ([8]; from 229 nM, PAM (Pam3CSK4) positive control): 107%
B1: peptide SEQ ID NO: 3 (carboxyl terminal domain of SEQ ID NO: 1) (peptide)
chain: QLPIETPANNPEESDEADQAPWTPMPLEIAFQGDRESVLKAMNAITGMQDYLFTVNSIRIRNERMMPPPIANPAAAKPAAAQPATGAASLTPADEAAAPAAPAIQQVIKPYMGKEQVFVQVSLNLVHFNQPKAQEPSED
- circulating levels of TNFα [2]: prevented the increase in the circulating levels
- Average weight ([3]; 0 weeks (initial state), DAG + SEQ ID NO: 3 group): 21.4 grams
- Average weight ([3]; 12 weeks, DAG + SEQ ID NO: 3, 2.5 μg/mouse intragastric daily): 37.9 grams
- cellular infiltrate of adipose tissue ([4]; 12 weeks, versus DAG group): prevented the increase in cellular infiltrate induced by DAG
- inflammatory process in adipose tissue ([4]; SEQ ID NO:2 in high or low doses): attenuate the inflammatory process in adipose tissue
- insulin secretion in response to glucose administration [5]: statistically significant reduction in insulin secretion
- leptin secretion [6]: decrease in leptin secretion
- glucose tolerance (AUC of GTT) versus DAG group [7]: improved glucose tolerance
- adiponectin in circulation [9]: tendency to prevent a fall of adiponectin

From patent US20240400621A1, “PEPTIDES FOR METABOLIC SYNDROME” (ALPARIS, S.A. de C.V., priority 2021, published 2024)
